Results: article PMC9188544, “Mechanism of glycogen synthase inactivation and interaction with glycogenin” (Nature Communications, 2022)
Where a chain is given by its changes, count along the chain named. Numbers in names are those of the source.

Key:
Test in all cases: co-purification (HisTrap, TEV cleavage, Ni subtraction, Superdex200 gel filtration); GS WT or mutant co-expressed with GN(Y195F) in insect cells, both with N-terminal His6-TEV; lysate loaded on the HisTrap column
Details in all cases: partners not purified
[1] = target: T1, human glycogen synthase 1 (GS1), wild type, pFastBac construct with N-terminal His6-TEV, co-expressed with … (human, UniProt P13807 1-737, phosphorylation at S8, S641 and S641/S645 probed by immunoblot (Fig. 4b))
T1 construct: glycogen synthase 1 (muscle), human, encoded by GYS1, cDNA NM 002103; also called GS WT; WT GS; not shown: His6, N-terminal, cleaved
T1 sequence (looked up): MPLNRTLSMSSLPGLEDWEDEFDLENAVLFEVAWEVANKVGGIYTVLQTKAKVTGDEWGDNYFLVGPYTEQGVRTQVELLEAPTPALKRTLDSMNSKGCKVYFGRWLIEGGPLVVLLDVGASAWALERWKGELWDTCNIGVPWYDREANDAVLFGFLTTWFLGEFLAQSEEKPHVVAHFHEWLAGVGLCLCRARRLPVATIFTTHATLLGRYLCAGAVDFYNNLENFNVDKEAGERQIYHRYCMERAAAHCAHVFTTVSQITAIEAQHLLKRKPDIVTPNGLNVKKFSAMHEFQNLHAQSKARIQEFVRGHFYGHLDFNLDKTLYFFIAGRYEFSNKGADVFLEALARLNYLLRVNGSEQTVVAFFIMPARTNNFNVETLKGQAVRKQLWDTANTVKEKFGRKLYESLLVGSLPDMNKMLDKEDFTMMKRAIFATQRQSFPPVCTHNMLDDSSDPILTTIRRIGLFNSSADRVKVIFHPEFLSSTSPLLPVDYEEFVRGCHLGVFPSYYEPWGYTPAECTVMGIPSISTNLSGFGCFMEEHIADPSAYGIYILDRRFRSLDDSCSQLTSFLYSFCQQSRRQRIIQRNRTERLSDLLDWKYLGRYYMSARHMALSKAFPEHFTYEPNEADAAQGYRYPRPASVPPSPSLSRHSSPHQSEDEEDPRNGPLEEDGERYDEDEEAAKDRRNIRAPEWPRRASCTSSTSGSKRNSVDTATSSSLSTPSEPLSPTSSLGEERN

[2] = target: T2, human glycogen synthase 1 (GS1) Y600A (human, UniProt P13807 1-737, Y600A, phosphorylation at S8, S641 and S641/S645 probed by immunoblot (Fig. 4b))
T2 construct: glycogen synthase 1 (muscle), human, encoded by GYS1, cDNA NM 002103; also called GS Y600A; not shown: His6, N-terminal, cleaved
T2 sequence (looked up): T1 sequence (looked up) with Y600A

[3] = target: T3, human glycogen synthase 1 (GS1) R588A + R591A (human, UniProt P13807 1-737, R588A | R591A, phosphorylation at S8, S641 and S641/S645 probed by immunoblot (Fig. 4b))
T3 construct: glycogen synthase 1 (muscle), human, encoded by GYS1, cDNA NM 002103; also called GS R588A + R591A double mutant; not shown: His6, N-terminal, cleaved
T3 sequence (looked up): T1 sequence (looked up) with R588A, R591A

Measured: binding result

B1: human glycogenin 1 (GN1) Y195F, full length, non-glucosylated (enzyme, UniProt P46976-2 1-333, looked up)
chain: MTDQAFVTLTTNDAYAKGALVLGSSLKQHRTTRRLVVLATPQVSDSMRKVLETVFDEVIMVDVLDSGDSAHLTLMKRPELGVTLTKLHCWSLTQYSKCVFMDADTLVLANIDDLFDREELSAAPDPGWPDCFNSGVFVYQPSVETYNQLLHLASEQGSFDGGDQGILNTFFSSWATTDIRKHLPFIYNLSSISIFSYLPAFKVFGASAKVVHFLGRVKPWNYTYDPKTKSVKSEAHDPNMTHPEFLILWWNIFTTNVLPLLQQFGLVKDTCSYVNVEDVSGAISHLSLGEIPAMAQPFVSSEERKERWEQGQADYMGADSFDNIKRKLDTYLQ
notes: glycogenin 1, human, encoded by GYG1, cDNA NM 001184720, full length; expected ~37.5 kDa; the C-terminal GN34 region is modelled as residues 300-332, which fits the 333-residue isoform; Cloned in pFL (with untagged GS) and in pFastBac (co-infected with His6-TEV-GS WT or mutants); Both carry an N-terminal His6 tag and a cleavable site, so they are treated as one molecule; also called GN(Y195F); GN …
binds: all assays above
